Our source for the absorbance and EC50 values is US20190177414A1.

One may read the pEC50 as −log10 of the EC50, conventionally taken in molar units. Low values mean a large EC50, high ones a small EC50.

The target in experiment [1] is CTLA4-mFc fusion protein (human). Kind of experiment: competitive ELISA; competitor B7-1-hFc coated 1 ug/ml; CTLA4-mFc 0.3 ug/ml; antibody dilution 1:3 from 3 ug/ml; replicate 1. (In general: In an ELISA, binding on a coated surface is turned into a signal by an enzyme label.)
Sequence of CTLA4-mFc fusion protein (human) (chain, as listed by the source limits assumed): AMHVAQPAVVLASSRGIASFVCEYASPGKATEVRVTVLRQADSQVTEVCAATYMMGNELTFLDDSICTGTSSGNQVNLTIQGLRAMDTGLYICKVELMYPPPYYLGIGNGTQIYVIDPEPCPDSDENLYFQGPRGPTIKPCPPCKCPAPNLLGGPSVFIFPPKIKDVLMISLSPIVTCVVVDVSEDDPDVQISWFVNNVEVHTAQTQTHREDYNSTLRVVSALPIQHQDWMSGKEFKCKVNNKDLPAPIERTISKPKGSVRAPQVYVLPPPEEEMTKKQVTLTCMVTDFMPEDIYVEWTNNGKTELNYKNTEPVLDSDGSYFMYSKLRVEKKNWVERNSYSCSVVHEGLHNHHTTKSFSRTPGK
The target is the same in experiment [2]. In words: competitive ELISA; competitor B7-1-hFc coated 1 ug/ml; CTLA4-mFc 0.3 ug/ml; antibody dilution 1:729 from 3 ug/ml; replicate 2.
The target is the same in experiment [3]. Kind of experiment: competitive ELISA; competitor B7-1-hFc coated 1 ug/ml; CTLA4-mFc 0.3 ug/ml; antibody dilution 1:81 from 3 ug/ml; replicate 1.
Experiment [4] has the same target. In words: competitive ELISA; competitor B7-1-hFc coated 1 ug/ml; CTLA4-mFc 0.3 ug/ml; antibody 3 ug/ml; replicate 1.
Experiment [5] has the same target. In words: competitive ELISA; competitor B7-1-hFc coated 1 ug/ml; CTLA4-mFc 0.3 ug/ml; antibody dilution 1:9 from 3 ug/ml; replicate 2.
The target is the same in experiment [6]. Kind of experiment: competitive ELISA; competitor B7-1-hFc coated 1 ug/ml; CTLA4-mFc 0.3 ug/ml; antibody dilution 1:243 from 3 ug/ml; replicate 1.
Experiment [7] has the same target. Kind of experiment: competitive ELISA; competitor B7-1-hFc coated 1 ug/ml; CTLA4-mFc 0.3 ug/ml; antibody dilution 1:9 from 3 ug/ml; replicate 1.
For experiment [8] the target is unchanged. Kind of experiment: competitive ELISA; competitor B7-1-hFc coated 1 ug/ml; CTLA4-mFc 0.3 ug/ml; antibody 0 (no antibody); replicate 2.
Experiment [9] shares this target. Kind of experiment: competitive ELISA; competitor B7-1-hFc coated 1 ug/ml; CTLA4-mFc 0.3 ug/ml; antibody dilution 1:27 from 3 ug/ml; replicate 2.
The target is the same in experiment [10]. Kind of experiment: competitive ELISA; competitor B7-1-hFc coated 1 ug/ml; CTLA4-mFc 0.3 ug/ml; antibody dilution 1:729 from 3 ug/ml; replicate 1.
Experiment [11] shares this target. Kind of experiment: competitive ELISA; competitor B7-1-hFc coated 1 ug/ml; CTLA4-mFc 0.3 ug/ml; antibody 3 ug/ml; replicate 2.
The target is the same in experiment [12]. Kind of experiment: competitive ELISA; competitor B7-1-hFc coated 1 ug/ml; CTLA4-mFc 0.3 ug/ml; antibody dilution 1:3 from 3 ug/ml; replicate 2.
Experiment [13] shares this target. Kind of experiment: competitive ELISA; competitor B7-1-hFc coated 1 ug/ml; CTLA4-mFc 0.3 ug/ml; antibody dilution 1:243 from 3 ug/ml; replicate 2.
Experiment [14] shares this target. Kind of experiment: competitive ELISA; competitor B7-1-hFc coated 1 ug/ml; CTLA4-mFc 0.3 ug/ml; antibody 0 (no antibody); replicate 1.
Experiment [15] shares this target. Kind of experiment: competitive ELISA; competitor B7-1-hFc coated 1 ug/ml; CTLA4-mFc 0.3 ug/ml.
Experiment [16] has the same target. Kind of experiment: competitive ELISA; competitor B7-1-hFc coated 1 ug/ml; CTLA4-mFc 0.3 ug/ml; antibody dilution 1:81 from 3 ug/ml; replicate 2.
The target is the same in experiment [17]. In words: competitive ELISA; competitor B7-1-hFc coated 1 ug/ml; CTLA4-mFc 0.3 ug/ml; antibody dilution 1:27 from 3 ug/ml; replicate 1.

pEC50: −log10 of the molar value.

Consider “control antibody 10D1 (anti-CTLA4 antibody)”, for which the absorbance at 450 nm in experiment [1] is 0.144; in [2], 0.692; in experiment [3], 0.572; in experiment [4], 0.147; in [5] it was 0.312; in [6] it was 0.556. In addition, the absorbance at 450 nm in experiment [7] came out at 0.351; in [8], 0.732; in [9], 0.365; in [10] it was 0.726; in experiment [11], 0.14; in [12], 0.133. Moreover, the absorbance at 450 nm in experiment [13] came to 0.554; in experiment [14], 0.888; in experiment [16] it was 0.663; in experiment [17], 0.442. In [15], this substance showed a pEC50 of 8.95.
